Experiment [1] deals with human cord blood cells (CD34-positive cells). To be noted: with or without TPO treatment; single administration; cited from earlier work.
The test system of another experiment is mouse bone marrow. Particulars: TPO administered to TPO-knockout mice; cited from earlier work.
Experiment [2] deals with human cord blood-derived CD34-positive cells. Nature of the experiment: Engraftment number of different human blood cell lineages in bone marrow of mice transplanted with human cord blood-derived hematopoietic stem cells (Example 1). The format is in vivo, NOD.CB17-Prkdc<scid>/J mice. An excerpt: Engraftment of transplanted hematopoietic stem cells in the bone marrow is required in hematopoietic stem cell transplantation. The present invention provides agents which comprise an agonist for the TPO receptor (c-mpl) as an active ingredient for enhancing the engraftment of transplanted CD34-positive hematopoietic cells in the bone marrow. The engraftment of transplanted CD34-positive hematopoietic cells (CD34-positive hematopoietic stem cells and CD34-positive hematopoietic precursor cells) in the bone marrow can be promoted by administering the agents of the present invention. The presence or absence, or the degree of engraftment of transplanted CD34-positive hematopoietic cells in the bone marrow (the engraftment rate of transplanted CD34-positive hematopoietic cells in the bone marrow) can be assessed, for example, by determining the absolute number of human CD34-positive hematopoietic cells in the bone marrow of NOD/SCID mice to which human hematopoietic cells are transplanted. Human cells can be identified among the mouse bone marrow cells by using a fluorescent-labeled, human CD34-specific antibody for detection. Specifically, the engraftment rate of transplanted CD34-positive hematopoietic cells in the bone marrow can be determined by the following procedures. First, NOD.CB17-Prkdc/J mice, to which human cord blood-derived CD34-positive cells have been transplanted, are euthanized three weeks after transplantation. The right and left femurs are collected, and then their epiphyseal portions are removed by scissors. Bone marrow cells are flushed out using a 26G-needle syringe and collected. After washing with IMDM containing 2% FBS, 5 ml of erythrocyte lysis solution is added, and the mixture is allowed to stand for five minutes. The mixture is centrifuged and supernatant is removed. Then, the precipitate is suspended in 2 ml of IMDM containing 2% FBS. The suspension is filtered through a 70-μm membrane to prepare a bone marrow cell suspension (2 ml/two femurs for each mouse). The cell suspension is aliquoted into 100-μl samples, and the cells are stained for 15 minutes with a fluorescent-labeled, human CD34-specific antibody and PI (final concentration: 2 μg/ml). After washing, 50 μl of Flow-Count fluorescent particles are added, and the engraftment number of human CD34-positive cells is determined using the EPICS XL cell analyzer. The determination may be performed, for example, according to Application Note 5: “Determination of the absolute number of cells using Flow-Count” (Beckman Coulter, Inc.). Likewise, the absolute number of different human blood cell lineages in the bone marrow can be determined using a variety of detection antibodies. The absolute number of human cells contained in the two femurs is represented by the following formula:
Absolute number of human cells=determined value (cells/μl)×1/2(Flow-Count amount added (50)/sample amount added (100))×2000 (2 ml/two femurs/mouse)
Mice used were acclimatized six-week-old male NOD.CB17-Prkdc/J. After systemic irradiation with 3.0 Gy of X-ray, an anti-asialo-GM1 antibody was intraperitoneally administered to the mice once every ten days from the day of irradiation. 5×10^4 human cord blood-derived CD34-positive cells were transplanted to each mouse at the caudal vein one day after irradiation. From the day after transplantation, the sc(Fv)2 antibody of SEQ ID NO: 73 was administered every day for ten consecutive days, and after that, administration was conducted for five days followed by two days of break. The doses were: 0.25 mg/5 ml/kg in the morning, and 2 mg/5 ml/kg in the evening. The antibody was subcutaneously administered at eight-hour intervals, twice a day for three weeks in total (n=10). 20 mmol/l citric acid buffer containing 0.02% Tween 80 was administered as a vehicle in the same way as the sc(Fv)2 antibody of SEQ ID NO: 73. The bone marrow was collected after three weeks transplantation, and FACS analysis was performed using EPIX XL. […]

The subject of a further experiment is human CFU-Meg colonies. As to the kind of experiment: Number of human CFU-Meg colonies in bone marrow of mice transplanted with human cord blood-derived hematopoietic stem cells (Example 2). The class given is in vivo, NOD.CB17-Prkdc<scid>/J mice. To be noted: vs vehicle-administered group; s.c. 0.25 + 2 mg/kg per day, three weeks; bone marrow cells cultured 13 days in MegaCult-C; FIG. 2. As to the method:
Mice used were acclimatized six-week-old male NOD.CB17-Prkdc/J. After systemic irradiation with 3.0 Gy of X-ray, an anti-asialo-GM1 antibody was intraperitoneally administered to the mice once every ten days from the day of irradiation. 5×10^4 human cord blood-derived CD34-positive cells were transplanted to each mouse at the caudal vein one day after irradiation. From the day after transplantation, the sc(Fv)2 antibody of SEQ ID NO: 73 was administered every day for ten consecutive days, and then after that, administration was conducted for five days followed by two days of break. The antibody was subcutaneously administered at 0.25 mg/5 ml/kg in the morning and 2 mg/5 ml/kg in the evening, at eight-hour intervals, twice a day for three weeks in total (n=10). 20 mmol/l citric acid buffer containing 0.02% Tween 80 was administered as a vehicle in the same way as the sc(Fv)2 antibody of SEQ ID NO: 73. Bone marrow cells were collected after three weeks transplantation. Bone marrow cells contained in the mouse femurs were cultured with the sc(Fv)2 antibody of SEQ ID NO: 73 for 13 days using MegaCult-C (StemCell Technologies). The number of human CFU-Meg colonies was determined by counting CD41-positive colonies containing 50 or more cells under a light microscope.

The test system of experiment [3] is human cord blood-derived CD34-positive cells. As to the kind of experiment: Dose-dependent effect on engraftment number of different human blood cell lineages in bone marrow of transplanted mice (Example 3). The class given is in vivo, NOD.CB17-Prkdc<scid>/J mice. Particulars: high, medium, low dose s.c. for ten days, FIG. 3. As to the method: Mice used were acclimatized six-week-old male NOD.CB17-Prkdc/J. After systemic irradiation with 3.0 Gy of X-ray, an anti-asialo-GM1 antibody was intraperitoneally administered to the mice on the day of irradiation and eight days after irradiation. 5×10^4 human cord blood-derived CD34-positive cells were transplanted to each mouse at the caudal vein the day after irradiation. The sc(Fv)2 antibody of SEQ ID NO: 73 was administered every day for ten consecutive days from the day after the irradiation, according to the following three dosages (subcutaneous administration; n=9 for each group).
High-dose group (0.25 mg/kg in the morning, an eight-hour interval, and 2 mg/kg in the evening, per day)
Medium-dose group (0.05 mg/kg in the morning, an eight-hour interval, and 0.2 mg/kg in the evening, per day)
Low-dose group (0.01 mg/kg in the morning, an eight-hour interval, and 0.02 mg/kg in the evening, per day)
The dose was adjusted so that the minimum drug concentration in peripheral blood during the administration period is 50 ng/ml, 10 ng/ml, or 2 ng/ml in the high-, medium-, or low-dose group, respectively.
20 mmol/l sodium citrate/150 mM NaCl buffer (pH 6.5) containing 0.02% Tween 80 was administered as a vehicle in the same way as the sc(Fv)2 antibody of SEQ ID NO: 73. Bone marrow cells were collected after two weeks transplantation, and FACS analysis was performed. The absolute number of human cells was determined using Flow-Count (Beckman).

Where [4] appears, read: vs vehicle group, s.c. 0.25 + 2 mg/kg per day, three weeks, FIG. 1.
Setting [5] is: two weeks after transplantation.
The mark [6] stands for this setting: summary statement of the inventors' findings.

In the case of “TPO: cytokine that promotes growth and differentiation of megakaryocytic lineage cells; ligand for c-mpl”, in experiment [1], the “frequencies of CD34 positive cells” value was “did not differ significantly”. The “mouse bone marrow transplantation efficiency” value in the experiment with mouse bone marrow was “increased”.

B1: sc(Fv)2 antibody of SEQ ID NO: 73: humanized sc(Fv)2 antibody comprising the amino acid sequence of SEQ ID NO: 73; c-mpl agonist (protein, listed as Homo sapiens)
chain: MDWTWRFLFVVAAATGVQSQVQLVQSGPEVKKPGASVKVSCKASGYTFTNSWMNWVRQRPGKGLEWIGRIYPGDGETIYNGKFRVRVTITADESTSTAYMQLSSLRSEDTAVYYCARGYDDYSFAYWGQGTTVTVSSGGGGSGGGGSGGGGSDIVMTQSPLSLPVTPGEPASISCRSSKSLLHSNGNTYLYWFLQKPGQSPQLLIYRMSNLASGVPDRFSGSGSGTDFTLKISRVEAEDVGVYYCMQHIEYPFTFGQGTKLEIKGGGGSGGGGSGGGGSQVQLVQSGPEVKKPGASVKVSCKASGYTFTNSWMNWVRQRPGKGLEWIGRIYPGDGETIYNGKFRVRVTITADESTSTAYMQLSSLRSEDTAVYYCARGYDDYSFAYWGQGTTVTVSSGGGGSGGGGSGGGGSDIVMTQSPLSLPVTPGEPASISCRSSKSLLHSNGNTYLYWFLQKPGQSPQLLIYRMSNLASGVPDRFSGSGSGTDFTLKISRVEAEDVGVYYCMQHIEYPFTFGQGTKLEIK
As for B1, in experiment [2] (vs vehicle group, s.c. 0.25 mg/kg morning + 2 mg/kg evening, three weeks, bone marrow three weeks after transplantation, FIG. 1), the “number of human CD34-positive cells in right and left femurs” value is reported as “statistically significantly increased”. In addition, in experiment [2] (setting [4]), the “number of CD19-positive cells in right and left femurs” value was “statistically significantly increased”; the “number of CD33-positive cells in right and left femurs” value is “statistically significantly increased”; the “number of CD41-positive cells in right and left femurs” value is “statistically significantly increased”; the “number of CD45-positive cells in right and left femurs” value was “statistically significantly increased”. Also, the “number of CFU-Meg colonies in the bone marrow” value in the experiment on human CFU-Meg colonies is reported as “statistically significantly increased”. Also, the “number of CD34-positive cells in right and left femurs” value in experiment [3] (bone marrow two weeks after transplantation) is recorded as “increase in a dose-dependent manner”. For the same molecule, in experiment [3] (setting [5]), the “number of CD19-positive cells in right and left femurs” value is listed as “increase in a dose-dependent manner”; the “number of CD33-positive cells in right and left femurs” value is given as “increase in a dose-dependent manner”; the “number of CD38-positive cells in right and left femurs” value is on record as “increase in a dose-dependent manner”; the “number of CD41-positive cells in right and left femurs” value was “increase in a dose-dependent manner”. Besides, the “number of CD45-positive cells in right and left femurs” value in experiment [3] (setting [5]) is “increase in a dose-dependent manner”.

B2: VB22B sc(Fv)2: agonistic minibody against the TPO receptor; amino acid sequence of SEQ ID NO: 14 (protein, listed as Mus musculus)
chain: MEWPLIFLFLLSGTAGVHSQVQLQQSGPELVKPGASVKISCKASGYAFTNSWMNWVKQRPGKGLEWIGRIYPGDGETIYNGKFRVKATLTADKSSSTAYMDISSLTSEDSAVYFCARGYDDYSFAYWGQGTLVTVSAGGGGSGGGGSGGGGSDIVMTQAAPSIPVTPGESVSISCRSSKSLLHSNGNTYLYWFLQRPGQSPQLLIYRMSNLASGVPDRFSGSGSGTAFTLRISRVEAEDVGVYYCMQHIEYPFTFGSGTKLEIKGGGGSGGGGSGGGGSQVQLQQSGPELVKPGASVKISCKASGYAFTNSWMNWVKQRPGKGLEWIGRIYPGDGETIYNGKFRVKATLTADKSSSTAYMDISSLTSEDSAVYFCARGYDDYSFAYWGQGTLVTVSAGGGGSGGGGSGGGGSDIVMTQAAPSIPVTPGESVSISCRSSKSLLHSNGNTYLYWFLQRPGQSPQLLIYRMSNLASGVPDRFSGSGSGTAFTLRISRVEAEDVGVYYCMQHIEYPFTFGSGTKLEIK
Turning to B2, in experiment [2] (setting [6]), the “engraftment of transplanted human cord blood-derived hematopoietic stem cells (CD34-positive hematopoietic cells) in the bone marrow” value was “enhanced the engraftment”, the “growth of multilineage blood precursor cells” value is “induced significant growth” and the “human megakaryocyte-specific differentiation (increase of megakaryocytic cells)” value is “induced human megakaryocyte-specific differentiation”.

(Values after patent US20100040600A1, “Agents for Promoting the Growth of Hematopoietic Stem Cells” (CHUGAI SEIYAKU KABUSHIKI KAISHA, priority 2006, published 2010).)
